The target of this assay is T1, Toscana virus nucleoprotein (Toscana virus, UniProt P21701).
T1 construct: Nucleoprotein (N) of Toscana virus, coded by the S segment; Monomeric fractions of N were pooled for complex formation; also called TOSV N; N protein; source: E. coli, purified under non-denaturing conditions (1 M NaCl and 3 M urea in the lysis buffer to remove nucleic acids)
The assay is described as follows: crystal structure; N–VHH complex at 13 mg/ml, hanging drop, 293 K, 0.5 M MES pH 6.5, 25% PEG 2000; space group P4(1)2(1)2, 3.8 Å. The note with it: both partners purified.

T1 sequence (P21701 2-253): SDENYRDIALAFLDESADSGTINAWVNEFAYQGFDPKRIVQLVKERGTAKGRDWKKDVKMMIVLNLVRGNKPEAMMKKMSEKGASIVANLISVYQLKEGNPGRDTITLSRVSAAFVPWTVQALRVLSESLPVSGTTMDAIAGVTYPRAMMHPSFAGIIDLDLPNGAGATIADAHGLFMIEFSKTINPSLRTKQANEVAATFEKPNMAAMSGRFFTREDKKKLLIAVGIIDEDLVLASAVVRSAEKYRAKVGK

B1: single-chain camelid antibody (VHH) targeting the TOSV N protein (VHH)
VHH: QVQLVESGGGSVQAGGSLRLSCAASGDAGRRYCMAWFRQAPGKEREGVAFISTANGRTDYVDSVKGRFTISQNSAKNTVYLQMNSLKPEDTAMYYCASRGYGYLSCSSYSLAAYNYWGQGTQVTVSS
notes: Selected by phage display from a llama immunised with TOSV N; The clone has no printed name; also called nanobody; source: E. coli WK6, periplasmic extract, purified (IMAC)
For B1, the binding result was “binds”.
